The values that follow come from patent US20140193430A1.

Test [1] has as its target recombinant KIR2DL1 protein (entire extracellular domain, produced in E. coli, refolded) (human) (UniProt P43626). Nature of the test: BIAcore competition on KIR2DL1 chip; first Ab EB6, second Ab (competitor) Pan2D.
Test [2] has the same target. As to the kind of experiment: BIAcore, direct binding of second Ab to KIR2DL1 chip (field of first Ab EB6). (SPR reads the build-up and loss of mass on a sensor chip optically.)
The target is the same in test [3]. Nature of the test: BIAcore, direct binding of second Ab to KIR2DL1 chip (field of first Ab 1-6F1).
Test [4] has the same target. As to the kind of experiment: BIAcore competition on KIR2DL1 chip; first Ab EB6, second Ab (competitor) 1-7F9.
The target is the same in test [5]. Nature of the test: BIAcore competition on KIR2DL1 chip; first Ab EB6, second Ab (competitor) 1-6F1.
The target is the same in test [6]. Nature of the test: BIAcore, second Ab on KIR2DL1 chip with first Ab (competitor) 1-6F1 bound.
Test [7] has the same target. Nature of the test: BIAcore competition on KIR2DL1 chip; first Ab EB6, second Ab (competitor) EB6.
For test [8] the target is unchanged. Nature of the test: BIAcore competition on KIR2DL1 chip; first Ab EB6, second Ab (competitor) DF200.
Test [9] has the same target. Nature of the test: BIAcore competition on KIR2DL1 chip; first Ab EB6, second Ab (competitor) 1-4F1.
Test [10] has the same target. As to the kind of experiment: BIAcore, second Ab on KIR2DL1 chip with first Ab (competitor) EB6 bound.
The target is the same in test [11]. Nature of the test: BIAcore, direct binding of second Ab to KIR2DL1 chip (field of first Ab 1-7F9).
The target is the same in test [12]. As to the kind of experiment: BIAcore, second Ab on KIR2DL1 chip with first Ab (competitor) 1-7F9 bound.
Test [13] has the same target. As to the kind of experiment: BIAcore competition on KIR2DL1 chip; first Ab Pan2D, second Ab (competitor) 1-7F9.
The target of test [14] is recombinant KIR2DL3 protein (entire extracellular domain, produced in E. coli, refolded) (human) (UniProt P43628). Nature of the test: BIAcore, direct binding of second Ab to KIR2DL3 chip (field of first Ab 1-4F1).
Test [15] deals with recombinant KIR2DL1 protein (entire extracellular domain, produced in E. coli, refolded) (human) (UniProt P43626). Nature of the test: BIAcore competition on KIR2DL1 chip; first Ab Pan2D, second Ab (competitor) 1-4F1.
The target is the same in test [16]. Nature of the test: BIAcore competition on KIR2DL1 chip; first Ab Pan2D, second Ab (competitor) 1-6F5.
Test [17] addresses immobilized KIR2DS1 (UniProt Q14954). Nature of the test: BIAcore, direct binding of second Ab to KIR2DS1 chip (field of first Ab 1-7F9).
For test [18], the target named is recombinant KIR2DL3 protein (entire extracellular domain, produced in E. coli, refolded) (human) (UniProt P43628). As to the kind of experiment: BIAcore competition on KIR2DL3 chip; first Ab Pan2D, second Ab (competitor) 1-6F5.
Test [19] shares this target. As to the kind of experiment: BIAcore, second Ab on KIR2DL3 chip with first Ab (competitor) 1-6F1 bound.
Test [20] has as its target recombinant KIR2DL1 protein (entire extracellular domain, produced in E. coli, refolded) (human) (UniProt P43626). As to the kind of experiment: BIAcore, second Ab on KIR2DL1 chip with first Ab (competitor) 1-6F5 bound.
The target is the same in test [21]. As to the kind of experiment: BIAcore, direct binding of second Ab to KIR2DL1 chip (field of first Ab 1-6F5).
Test [22] concerns the target recombinant KIR2DL3 protein (entire extracellular domain, produced in E. coli, refolded) (human) (UniProt P43628). Nature of the test: BIAcore, second Ab on KIR2DL3 chip with first Ab (competitor) 1-4F1 bound.
For test [23] the target is unchanged. Nature of the test: BIAcore competition on KIR2DL3 chip; first Ab Pan2D, second Ab (competitor) 1-7F9.
The target of test [24] is immobilized KIR2DS1 (UniProt Q14954). As to the kind of experiment: BIAcore competition on KIR2DS1 chip; first Ab Pan2D, second Ab (competitor) DF200.
Test [25] concerns the target recombinant KIR2DL3 protein (entire extracellular domain, produced in E. coli, refolded) (human) (UniProt P43628). As to the kind of experiment: BIAcore competition on KIR2DL3 chip; first Ab Pan2D, second Ab (competitor) gl183.
The target in test [26] is recombinant KIR2DL1 protein (entire extracellular domain, produced in E. coli, refolded) (human) (UniProt P43626). As to the kind of experiment: BIAcore competition on KIR2DL1 chip; first Ab Pan2D, second Ab (competitor) 1-6F1.
Test [27] deals with immobilized KIR2DS1 (UniProt Q14954). Nature of the test: BIAcore, second Ab on KIR2DS1 chip with first Ab (competitor) 1-7F9 bound.
For test [28], the target named is recombinant KIR2DL3 protein (entire extracellular domain, produced in E. coli, refolded) (human) (UniProt P43628). Nature of the test: BIAcore, direct binding of second Ab to KIR2DL3 chip (field of first Ab 1-6F1).
Test [29] addresses immobilized KIR2DS1 (UniProt Q14954). Nature of the test: BIAcore competition on KIR2DS1 chip; first Ab Pan2D, second Ab (competitor) 1-7F9.
Test [30] has the same target. As to the kind of experiment: BIAcore competition on KIR2DS1 chip; first Ab Pan2D, second Ab (competitor) 1-4F1.
In test [31] the target is recombinant KIR2DL3 protein (entire extracellular domain, produced in E. coli, refolded) (human) (UniProt P43628). Nature of the test: BIAcore, second Ab on KIR2DL3 chip with first Ab (competitor) 1-6F5 bound.
Test [32] deals with recombinant KIR2DL1 protein (entire extracellular domain, produced in E. coli, refolded) (human) (UniProt P43626). Nature of the test: BIAcore competition on KIR2DL1 chip; first Ab Pan2D, second Ab (competitor) EB6.
For test [33] the target is unchanged. As to the kind of experiment: BIAcore competition on KIR2DL1 chip; first Ab Pan2D, second Ab (competitor) DF200.
For test [34], the target named is recombinant KIR2DL3 protein (entire extracellular domain, produced in E. coli, refolded) (human) (UniProt P43628). Nature of the test: BIAcore competition on KIR2DL3 chip; first Ab Pan2D, second Ab (competitor) 1-4F1.
Test [35] shares this target. As to the kind of experiment: BIAcore, direct binding of second Ab to KIR2DL3 chip (field of first Ab 1-7F9).
Test [36] shares this target. Nature of the test: BIAcore competition on KIR2DL3 chip; first Ab Pan2D, second Ab (competitor) DF200.
For test [37] the target is unchanged. As to the kind of experiment: BIAcore competition on KIR2DL3 chip; first Ab Pan2D, second Ab (competitor) 1-6F1.
In test [38] the target is KIR2DL1(R131W)-hFc (human) (UniProt P43626). As to the kind of experiment: ELISA, KIR2DL1(R131W)-hFc captured via goat anti-human antibodies, mAb titrated, peroxidase anti-mouse, A450 [panel pan2D]. In general terms: ELISA stands for enzyme-linked immunosorbent assay.
Test [39] addresses recombinant KIR2DL3 protein (entire extracellular domain, produced in E. coli, refolded) (human) (UniProt P43628). As to the kind of experiment: BIAcore, direct binding of second Ab to KIR2DL3 chip (field of first Ab 1-6F5).
Test [40] shares this target. As to the kind of experiment: BIAcore, second Ab on KIR2DL3 chip with first Ab (competitor) 1-7F9 bound.

Turning to EB6 (IgG1 anti KIR2DL1) (antibody), the % inhibition of second Ab binding by first Ab in [1] was 40%; in test [4], 65%; in test [5], 23%; in test [7] it was 57%; in test [8], 60%; in [9], 48%. The RU, direct binding (RU1) in test [2] turned out to be 460 RU; in test [3], 260 RU; in test [11], 460 RU. In addition, the values for the RU, binding with first Ab present (RU2) in test [6], in [10] and in test [12] were 320 RU, 200 RU and 180 RU, respectively.
In the case of monoclonal antibody NKVSF1, the % inhibition of second Ab binding by first Ab stood at 2% in test [13]; 95% in test [15]; 13% in [16]; 18% in [18]; 15% in test [23]; 100% in the test with immobilized KIR2DS1 [24]. Also, the % inhibition of second Ab binding by first Ab in test [25] is 85%; in [26], 12%; in the test with immobilized KIR2DS1 [29], 45%; in the test with immobilized KIR2DS1 [30], 100%; in test [32], 90%; in test [33], 90%. The % inhibition of second Ab binding by first Ab in [34] worked out at 68%; in test [36], 95%; in [37], 8%. Besides, the RU, direct binding (RU1) in [14] worked out at 2400 RU; with immobilized KIR2DS1 [17], 1350 RU; in test [3] it was 475 RU; in test [21], 475 RU; in test [28] it was 990 RU; in [11] it was 545 RU. The results for the RU, direct binding (RU1) in test [35] and in test [39] were 870 RU and 990 RU, respectively. In addition, the RU, binding with first Ab present (RU2) in test [19] came to 1090 RU; in [20], 440 RU; in test [22], 890 RU; in [6] it was 440 RU; with immobilized KIR2DS1 [27] it was 1200 RU; in test [31], 950 RU. In addition, the RU, binding with first Ab present (RU2) amounted to 534 RU in test [12] and 830 RU in test [40]. Further, the 50% effective concentration (EC50 (read off the curve)) (usually the concentration giving half of the maximal effect) in [38] was found to be 0.02 µM.
